Test results published in article PMC11677236, “TIPE drives a cancer stem-like phenotype by promoting glycolysis via PKM2/HIF-1α axis in melanoma” (eLife, 2024).

Molecular target: T1, GST-tagged PKM2 (UniProt P14618 1-531)
T1 construct: Pyruvate kinase isoform M2 (PKM2); also called GST-PKM2; source: purified
Experiment: pull-down; GST-pull down in vitro using purified GST-tagged PKM2 and TIPE-HA
Conditions: both partners purified

T1 sequence (P14618 whole entry, canonical isoform): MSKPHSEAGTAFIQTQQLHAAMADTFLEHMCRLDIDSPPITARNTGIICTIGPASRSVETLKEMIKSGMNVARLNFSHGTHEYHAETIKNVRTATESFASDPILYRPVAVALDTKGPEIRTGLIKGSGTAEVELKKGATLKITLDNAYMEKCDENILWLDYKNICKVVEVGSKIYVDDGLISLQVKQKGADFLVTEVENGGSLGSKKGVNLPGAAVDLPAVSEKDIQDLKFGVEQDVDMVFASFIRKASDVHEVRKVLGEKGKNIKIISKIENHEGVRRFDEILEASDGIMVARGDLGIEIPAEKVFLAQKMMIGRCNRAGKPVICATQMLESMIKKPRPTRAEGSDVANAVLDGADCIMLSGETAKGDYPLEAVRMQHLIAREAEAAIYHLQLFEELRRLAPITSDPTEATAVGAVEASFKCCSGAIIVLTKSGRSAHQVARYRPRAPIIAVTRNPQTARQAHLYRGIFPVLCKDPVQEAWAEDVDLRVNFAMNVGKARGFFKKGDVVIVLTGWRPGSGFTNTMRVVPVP

binding result: binds
B1: TIPE-HA used in the GST-pull down assay (natural protein, UniProt O95379 1-198, looked up)
chain: MHSEAEESKEVATDVFNSKNLAVQAQKKILGKMVSKSIATTLIDDTSSEVLDELYRVTREYTQNKKEAEKIIKNLIKTVIKLAILYRNNQFNQDELALMEKFKKKVHQLAMTVVSFHQVDYTFDRNVLSRLLNECREMLHQIIQRHLTAKSHGRVNNVFDHFSDCEFLAALYNPFGNFKPHLQKLCDGINKMLDEENI
notes: TIPE (TNFAIP8); The legend says 'using purified GST-tagged PKM2 and TIPE-HA'; It may be the same construct as m3
